# In PMC11218660, “Functional dissection of human cardiac enhancers and noncoding de novo variants in congenital heart disease”:
# T1: SRF (human, UniProt P11831 1-508)
# T1 sequence: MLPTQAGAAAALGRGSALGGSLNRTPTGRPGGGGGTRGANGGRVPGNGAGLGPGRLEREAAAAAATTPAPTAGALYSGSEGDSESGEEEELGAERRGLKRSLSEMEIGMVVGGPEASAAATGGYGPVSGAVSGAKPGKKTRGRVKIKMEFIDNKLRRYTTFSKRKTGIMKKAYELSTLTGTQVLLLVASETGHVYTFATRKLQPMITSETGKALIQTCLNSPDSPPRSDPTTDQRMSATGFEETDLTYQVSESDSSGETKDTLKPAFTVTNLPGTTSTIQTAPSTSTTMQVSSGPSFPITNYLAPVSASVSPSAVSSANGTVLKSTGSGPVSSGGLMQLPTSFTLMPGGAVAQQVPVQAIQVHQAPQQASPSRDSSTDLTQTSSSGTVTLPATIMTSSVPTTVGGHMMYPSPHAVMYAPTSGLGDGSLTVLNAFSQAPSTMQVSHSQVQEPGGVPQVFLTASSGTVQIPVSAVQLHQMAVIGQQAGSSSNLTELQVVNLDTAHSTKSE
# Target: T1, SRF
# Test: EMSA; EMSA: 150 mM KCl, 0.1 mM DTT, 0.1 mM EDTA, 10 mM Tris pH 7.4; 500-800 fmol probe, 0.1-2.0 ug protein in 15-20 ul; room temperature 20 min; 6% native PAGE, SYBR
# Conditions: protein: recombinant; chain copies: 2; blunt
row,Binder,binding result
1,GLB1L3-CRE REF (dsDNA) DNA 1: GAGGGAGGGGAGCGATCTCTCCTTTCTTGGAGAAAATAGTATCGC DNA 2: GCGATACTATTTTCTCCAAGAAAGGAGAGATCGCTCCCCTCCCTC,binds
2,ADAMTS6-CRE ALT (dsDNA) DNA 1: AATGCATCTGCTTGCTTCATTTGGCAGATTCCTCAAGAGT DNA 2: ACTCTTGAGGAATCTGCCAAATGAAGCAAGCAGATGCATT,binds
